Experimental data taken from patent publication US20220031842A1 (JIANGSU HENGRUI MEDICINE, published 2022).

T1: Full length of LAG-3 (human LAG-3 over-expressed on CHO-S cells) (human, UniProt P18627 23-525)
T1 construct: also called LAG-3 over-expressing CHO-S cells; full-length LAG-3
T1 sequence: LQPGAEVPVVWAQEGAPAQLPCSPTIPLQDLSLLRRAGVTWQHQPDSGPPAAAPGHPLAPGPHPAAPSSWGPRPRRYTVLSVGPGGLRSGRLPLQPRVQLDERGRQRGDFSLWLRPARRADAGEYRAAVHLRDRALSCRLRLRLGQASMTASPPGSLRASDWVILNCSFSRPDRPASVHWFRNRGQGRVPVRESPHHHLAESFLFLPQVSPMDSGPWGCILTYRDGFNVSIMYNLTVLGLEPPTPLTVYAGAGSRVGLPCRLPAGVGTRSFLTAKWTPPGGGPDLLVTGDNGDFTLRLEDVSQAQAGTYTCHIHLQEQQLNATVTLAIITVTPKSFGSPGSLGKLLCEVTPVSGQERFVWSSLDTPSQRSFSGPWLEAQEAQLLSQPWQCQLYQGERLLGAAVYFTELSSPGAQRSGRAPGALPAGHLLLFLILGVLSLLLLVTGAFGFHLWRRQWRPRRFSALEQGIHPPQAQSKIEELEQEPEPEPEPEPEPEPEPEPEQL


What was measured:
[1] = target: T1, Full length of LAG-3 (human LAG-3 …); assay: cell ELISA on fixed CHO-S cells overexpressing full-length human LAG-3
Description: 100 μl/well of cells were seeded into 96-well plate at a density of 4×10⁵/ml and incubated overnight. The supernatant was discarded, and the plate was washed three times with PBS, and was fixed with 4% PFA (100 μl/well) for half an hour at room temperature, and then the plate was washed three times with PBS. After discarding the liquid, the plate was blocked with 200 μl/well of blocking solution containing 5% skim milk (Bright Dairy, skim milk powder) diluted in PBS, and incubated at 37° C. for 2.5 hours. After blocking, the blocking solution was discarded and the plate was washed 5 times with PBST buffer (PH7.4 PBS containing 0.05% tween-20), added with 50 μl/well of various concentrations of antibodies to be tested (Hybridoma purified antibody or humanized antibody) which have been diluted with sample diluent, and then incubated in incubator at 37° C. for 1 h. The plate was washed 5 times with PBST after incubation, added with 100 μl/well of goat anti-mouse (Jackson Immuno Research, Cat No. 115-035-003) or goat anti-human secondary antibody (Jackson Immuno Research, Cat No. 109-035-003) labeled with HRP, diluted in sample diluent, and the plate was incubated at 37° C. for 1 h. […]

[2] = target: T2, Fusion protein of LAG-3 extracellular region and hIgG1 Fc (human); assay: competition: biotin-LAG-3-Fc binding to fixed Daudi cells, antibody titrated
T2 construct: Limits of the signal peptide are marked only by lost underlining; also called LAG-3-Fc; LAG-3-Fc fusion protein
Description: Daudi cells (human leukemia cells, purchased from the cell bank in Chinese Academy of Sciences) were seeded in 96-well plate with a density of 3×10⁵/well. After centrifugation at 1000 rpm, the supernatant was discarded and then the plate was fixed with 4% PFA for 30 min at room temperature. The plate was washed 4 times with PBS after discarding the fixed solution, and the plate was blocked with 200 μl/well of blocking solution containing 5% skim milk (Bright Dairy, skim milk powder) diluted in PBS, and incubated at 37° C. for 2.5 hours. After blocking, the blocking solution was discarded and the plate was washed 5 times with PBST buffer (pH7.4 PBS containing 0.05% tween-20), added with 50 μl/well mixture of biotin-labeled (Biotin labeling kit, Dojindo Chemical, Cat No. LK03) LAG-3-Fc fusion protein (produced in-house, SEQ ID NO: 3) and gradient concentrations of the antibody to be tested, wherein the biotin-labeled LAG-3-Fc fusion protein has been diluted with sample diluent (PH7.4 PBS containing 1% BSA) at a final concentration of 0.4 μg/ml, and pre-mixed for an hour, then the plate was incubated at 37° C. for 1 h. […] The OD value at a wavelength of 450 nm was read on NOVOStar microplate reader, and then the activity of the LAG-3 antibody in blocking the binding of the antigen to Daudi cells was calculated.

| Binder | EC50 [1] [nM] | IC50 [2] [nM] |
| --- | --- | --- |
| mAb303 (antibody, V domains shown, Murine hybridoma antibody; also called LAG-3 antibody mAb303; hybridoma clone mAb303) VH: EVQLQQSGPVLVKPGASVKMSCKASGYTLTDYYMNWVKQSHGKSLEWIGVINPYNGDTAYNQKFKGKATLTVDKSSNTAYMEINSLTSEDSAVYYCTRDDGYYDYYFDVWGTGTTVTVSS VL: DIQMTQSPSSLSASLGERVILTCRASQDIGSRLNWLQQGPDGTFKRLIYATSTLDSGVPKRFSGSRSGSDFSLTISSLESEDFVDYYCLQLASSPPTFGGGTKLEIK | 0.279 | 0.596 |
| mAb229 (antibody, V domains shown, Murine hybridoma antibody; also called LAG-3 antibody mAb229; hybridoma clone mAb229) VH: QIQLVQSGPELKKPGETVKISCKASGYTFTTSGMSWVKQAPGKGLKWMGWINTYSGVPTYADDFKGRFAFSLETSASTAYLQINNLKNEDTATYFCARDNYDARDVYYYAMDYWGQGTSVTVSS VL: DIQMTQSPASLSVSVGETVTITCRASENIYSNLAWYQQKQGKSPQLLVYAATNLADGVPSRFSGSGSGTQYSLKINSLQSEDFGSYYCQHFWITPWTFGGGTKLEIK | 0.191 | 1.33 |
